Our source for the normalised SPOT signal, Boehringer light units (BLU); mean over the file's lines of this peptide values is publication PMC314469, “Protein Interaction Networks by Proteome Peptide Scanning” (PLoS Biology, 2004).

First the molecules themselves.
B1: Q9P2S2 1586-1599 (peptide)
chain: TSFEPRRPPPLRPG
B2: O60281 946-959 (peptide)
chain: TRYSPYRPYRSVHQ
B3: P29316 42-55 (peptide)
chain: TSPTFRRPKTLRLR
B4: O14730 137-150 (peptide)
chain: TRDDPYRPAKPVPT
B5: Q9BQL3 97-111 (peptide)
chain: TRSPPPRPPPPAIN
B6: P10323 306-320 (peptide)
chain: TRPPPIRPPFSHPI
B7: Q96EK0 35-48 (peptide)
chain: TRVQPRRPTKGTHR
B8: Q9BZH3 389-402 (peptide)
chain: TQPVLKRPRHVHSH
B9: Q9UKN4 408-422 (peptide)
chain: TSAPPSRPPPPRAT
B10: Q9ULT9 312-325 (peptide)
chain: TRTDPTRPIRTPVI
B11: Q96F98 1-15 (peptide)
chain: TRGRPTRPPTRPPT
B12: Q99966 72-86 (peptide)
chain: TTTPPTKPPSFNLH
B13: Q15477 130-143 (peptide)
chain: TSLSLRRPPGPASQ
B14: Q16632 107-120 (peptide)
chain: TRKGPKRPQQPNPP
B15: Q9NRC7 337-350 (peptide)
chain: TSPAPHRPPKRVKA
B16: P46778 10-23 (peptide)
chain: TRYMFSRPFRKHGV
B17: Q92914 53-66 (peptide)
chain: SGGRPARPDRGPEP
B18: Q13424 330-343 (peptide)
chain: TREALSRPARTAPL
B19: Q9C0H3 154-168 (peptide)
chain: TTRRPPRPPGSSRK
B20: Q9NP08 321-335 (peptide)
chain: TRWPPSRPPPPSPF
B21: Q96KN1 287-301 (peptide)
chain: TTPPPGRPPAPSSE
B22: P34969 436-449 (peptide)
chain: TRRVLLRPEKRPPV
B23: Q9NRJ4 1113-1126 (peptide)
chain: AAVTLKRPPPYQWD
B24: Q9UQD1 353-366 (peptide)
chain: TSPAPHRPPKRGPL
B25: Q9H2L5 83-96 (peptide)
chain: TSWMPRRPSSPLKE
B26: Q9H9L7 3-16 (peptide)
chain: SGATLKRPMEFEAA
B27: P58840 117-131 (peptide)
chain: TRPPPIRPPFSHPL
B28: Q99767 658-671 (peptide)
chain: TTVLIKRPDLKYQL
B29: P33121 45-59 (peptide)
chain: TRPKPLKPPSDLSM
B30: Q13135 548-561 (peptide)
chain: TSAVLRRPQKGRLA
B31: Q14333 228-241 (peptide)
chain: TRESIVRPSRRGGI
B32: P57073 407-420 (peptide)
chain: SFHSPRRPYASPLL
B33: Q05707 817-831 (peptide)
chain: TQSLPTRPPTFPPT
B34: P82251 399-412 (peptide)
chain: TRKELERPIKVPVV
B35: O75334 571-584 (peptide)
chain: TTKVIRRPRRGRMG
B36: P30304 268-281 (peptide)
chain: TRSVLKRPERSQEE
B37: O94942 425-438 (peptide)
chain: TSVPLARPLRTSEE
B38: O15054 552-565 (peptide)
chain: TSGSFRRPESPRPR

For the first assay, the target named is endophilin SH3 (SH3G2_HUMAN), Q99962. Briefly: SPOT array.
In turn, B1 gave a normalised SPOT signal, Boehringer light units (BLU); mean over the file's lines of this peptide of 210.
Same read-out and setting: the value for B2 was 913; that for B3 was 54.7; that for B4 was 68.1.
B5: the normalised SPOT signal, Boehringer light units (BLU); mean over the file's lines of this peptide came to 13300.
The same measure, in the same setting: to B6 belongs 10400; to B7, 138.
Still for that read-out and setting: to B8 belongs 60.5; to B9, 14100; to B10, 96.3.
On the same count and under the same terms, to B11 belongs 8360.
Turning to B12, the normalised SPOT signal, Boehringer light units (BLU); mean over the file's lines of this peptide worked out at 647.
On the same count and under the same terms, the value for B13 was 26.8; that for B14 was 2280; that for B15 was 4.2.
On to B16, for which the normalised SPOT signal, Boehringer light units (BLU); mean over the file's lines of this peptide was 534.
Take B17: the normalised SPOT signal, Boehringer light units (BLU); mean over the file's lines of this peptide came out at 2500.
In turn, B18 came in with a normalised SPOT signal, Boehringer light units (BLU); mean over the file's lines of this peptide of 216.
Still for that read-out and setting: the value for B19 was 11100; that for B20 was 7730; that for B21 was 4930.
On the same count and under the same terms, the value for B22 was 123.
Take B23: the normalised SPOT signal, Boehringer light units (BLU); mean over the file's lines of this peptide was 61.6.
Still for that read-out and setting: to B24 belongs 4010; to B25, 684.
Molecule B26 gave a normalised SPOT signal, Boehringer light units (BLU); mean over the file's lines of this peptide of 0.
In the case of B27, the normalised SPOT signal, Boehringer light units (BLU); mean over the file's lines of this peptide turned out to be 8780.
On the same count and under the same terms, the value for B28 was 74.4.
The same measure, in the same setting: to B29 belongs 451.
Same read-out and setting: to B30 belongs 138.
Consider B31, for which the normalised SPOT signal, Boehringer light units (BLU); mean over the file's lines of this peptide is 89.5.
Same read-out and setting: the value for B32 was 1100; that for B33 was 1190; that for B34 was 324.
On the same count and under the same terms, to B35 belongs 150; to B36, 54.1.
On the same count and under the same terms, the value for B37 was 186.
B38 displayed a normalised SPOT signal, Boehringer light units (BLU); mean over the file's lines of this peptide of 67.6.

Another assay concerns the target T1, amphyphisin SH3 (AMPH_HUMAN), P49418.
T1 chain: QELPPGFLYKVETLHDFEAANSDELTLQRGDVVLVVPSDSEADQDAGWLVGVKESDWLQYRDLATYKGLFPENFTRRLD
Briefly: SPOT array.
Take B1: the normalised SPOT signal, Boehringer light units (BLU); mean over the file's lines of this peptide was determined as 32.4.
Still for that read-out and setting: the value for B2 was 1000; that for B3 was 56.7.
Still for that read-out and setting: the value for B4 was 4.8; that for B5 was 1400; that for B6 was 804.
On to B7, for which the normalised SPOT signal, Boehringer light units (BLU); mean over the file's lines of this peptide came to 38.
In the case of B8, the normalised SPOT signal, Boehringer light units (BLU); mean over the file's lines of this peptide amounted to 46.6.
The same measure, in the same setting: to B9 belongs 5540; to B10, 568.
Still for that read-out and setting: to B11 belongs 913; to B12, 54.
B13 showed a normalised SPOT signal, Boehringer light units (BLU); mean over the file's lines of this peptide of 33.9.
On the same count and under the same terms, the value for B14 was 46.7; that for B15 was -0.
Still for that read-out and setting: to B16 belongs 2180.
In turn, B17 showed a normalised SPOT signal, Boehringer light units (BLU); mean over the file's lines of this peptide of 1740.
On the same count and under the same terms, the value for B18 was 440; that for B19 was 3160; that for B20 was 363.
B21 had a normalised SPOT signal, Boehringer light units (BLU); mean over the file's lines of this peptide of 24.7.
Still for that read-out and setting: the value for B22 was 177; that for B23 was 42.1.
On the same count and under the same terms, the value for B24 was 220.
Still for that read-out and setting: to B25 belongs 36.5; to B26, 31.6.
Turning to B27, the normalised SPOT signal, Boehringer light units (BLU); mean over the file's lines of this peptide worked out at 567.
On the same count and under the same terms, to B28 belongs 30.1; to B29, 90.5; to B30, 84.9.
The same measure, in the same setting: to B31 belongs 1320.
The same measure, in the same setting: the value for B32 was 71.
On to B33, for which the normalised SPOT signal, Boehringer light units (BLU); mean over the file's lines of this peptide amounted to 78.8.
Still for that read-out and setting: to B34 belongs 0; to B35, 118; to B36, 89.1.
The same measure, in the same setting: to B37 belongs 161; to B38, 57.4.
